Consider 35 sequences from publication PMC3334620.

Data set [1] has as its target T1, Ybr033w (Saccharomyces cerevisiae) (UniProt P38073).
T1 sequence: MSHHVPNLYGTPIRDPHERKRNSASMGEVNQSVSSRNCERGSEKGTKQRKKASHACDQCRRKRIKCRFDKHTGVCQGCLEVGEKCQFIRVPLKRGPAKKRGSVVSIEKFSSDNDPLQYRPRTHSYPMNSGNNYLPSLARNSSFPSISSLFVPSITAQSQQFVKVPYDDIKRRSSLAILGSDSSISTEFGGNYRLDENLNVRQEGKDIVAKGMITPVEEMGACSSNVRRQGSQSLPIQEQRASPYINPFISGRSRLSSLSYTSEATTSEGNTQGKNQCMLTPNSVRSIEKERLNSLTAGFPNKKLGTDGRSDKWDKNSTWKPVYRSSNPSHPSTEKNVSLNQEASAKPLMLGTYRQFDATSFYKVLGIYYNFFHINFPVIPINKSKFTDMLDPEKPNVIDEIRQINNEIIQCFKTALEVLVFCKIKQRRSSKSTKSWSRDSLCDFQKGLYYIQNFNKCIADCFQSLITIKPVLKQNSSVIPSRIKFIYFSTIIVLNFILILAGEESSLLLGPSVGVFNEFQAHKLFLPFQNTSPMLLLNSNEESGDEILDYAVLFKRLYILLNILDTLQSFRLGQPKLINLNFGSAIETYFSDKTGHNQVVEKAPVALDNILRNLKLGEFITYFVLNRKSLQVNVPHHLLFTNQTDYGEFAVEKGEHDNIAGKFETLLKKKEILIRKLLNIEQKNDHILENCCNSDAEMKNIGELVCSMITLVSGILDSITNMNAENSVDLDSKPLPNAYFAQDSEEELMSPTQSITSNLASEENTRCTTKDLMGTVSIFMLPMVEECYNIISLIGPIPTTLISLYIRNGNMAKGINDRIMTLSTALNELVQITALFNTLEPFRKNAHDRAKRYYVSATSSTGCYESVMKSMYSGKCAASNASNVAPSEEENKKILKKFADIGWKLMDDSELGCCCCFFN
As to conditions: 200 nM.

In data set [2] the target is T2, Cin5 (Saccharomyces cerevisiae) (UniProt P40917).
T2 sequence: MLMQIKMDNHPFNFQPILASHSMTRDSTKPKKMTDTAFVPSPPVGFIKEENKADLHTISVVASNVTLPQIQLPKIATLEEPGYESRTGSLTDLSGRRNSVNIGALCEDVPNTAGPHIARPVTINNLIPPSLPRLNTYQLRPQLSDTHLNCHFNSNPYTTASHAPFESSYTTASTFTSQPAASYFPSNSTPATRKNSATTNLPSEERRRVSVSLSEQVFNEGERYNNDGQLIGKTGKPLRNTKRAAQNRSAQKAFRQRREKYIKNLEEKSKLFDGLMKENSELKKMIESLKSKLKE
As to conditions: 100 nM.

The target of data set [3] is T3, Zap1 (Saccharomyces cerevisiae) (UniProt P47043).
T3 sequence: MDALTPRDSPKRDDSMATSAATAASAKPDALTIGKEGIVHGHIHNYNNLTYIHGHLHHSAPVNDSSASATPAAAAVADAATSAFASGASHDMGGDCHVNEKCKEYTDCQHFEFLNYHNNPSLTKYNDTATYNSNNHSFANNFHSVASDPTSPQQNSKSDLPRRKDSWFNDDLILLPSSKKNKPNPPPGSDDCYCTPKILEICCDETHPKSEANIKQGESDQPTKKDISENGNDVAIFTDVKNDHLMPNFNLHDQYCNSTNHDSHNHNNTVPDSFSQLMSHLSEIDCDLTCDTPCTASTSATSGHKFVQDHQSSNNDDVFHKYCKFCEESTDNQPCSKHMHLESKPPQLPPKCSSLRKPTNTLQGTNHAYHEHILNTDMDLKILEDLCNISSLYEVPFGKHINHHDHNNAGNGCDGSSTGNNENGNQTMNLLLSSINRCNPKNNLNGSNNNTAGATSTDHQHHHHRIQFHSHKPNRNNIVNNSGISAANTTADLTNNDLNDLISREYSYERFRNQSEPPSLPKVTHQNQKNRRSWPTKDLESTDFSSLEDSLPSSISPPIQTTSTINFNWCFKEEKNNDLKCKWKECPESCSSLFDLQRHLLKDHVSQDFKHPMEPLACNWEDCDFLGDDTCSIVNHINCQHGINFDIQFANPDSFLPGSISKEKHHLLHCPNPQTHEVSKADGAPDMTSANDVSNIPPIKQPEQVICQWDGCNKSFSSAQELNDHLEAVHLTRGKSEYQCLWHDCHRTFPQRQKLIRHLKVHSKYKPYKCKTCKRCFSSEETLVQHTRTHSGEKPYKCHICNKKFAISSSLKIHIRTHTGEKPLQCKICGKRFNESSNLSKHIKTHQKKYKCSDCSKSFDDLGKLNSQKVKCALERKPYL
As to conditions: 200 nM.

The sequence “GGAAAAAC (double strand) [8-mer GGAAAAAC]” had a binding signal (PBM E-score (-0.5 to 0.5)) in data set [1] of 0.476.
“CGTAATCA (double strand) [8-mer CGTAATCA]”: the binding signal (PBM E-score (-0.5 to 0.5)) in data set [2] is 0.458.
In data set [3], “CCATAACC (double strand) [8-mer CCATAACC]” had a binding signal (PBM E-score (-0.5 to 0.5)) of 0.479.
“TGACATAA (double strand) [8-mer TGACATAA]” returned a binding signal (PBM E-score (-0.5 to 0.5)) in data set [2] of 0.462.
In the case of “CGGAACAA (double strand) [8-mer CGGAACAA]”, the binding signal (PBM E-score (-0.5 to 0.5)) in data set [1] was 0.491.
In data set [3], “ATAACCCC (double strand) [8-mer ATAACCCC]” had a binding signal (PBM E-score (-0.5 to 0.5)) of 0.476.
The same measure, in the same setting: the figure for “AAGGTTAT (double strand) [8-mer AAGGTTAT]” is 0.478.
For the sequence “TTACCTAA (double strand) [8-mer TTACCTAA]”, the binding signal (PBM E-score (-0.5 to 0.5)) in data set [2] came out at 0.451.
As to “GGTTATGA (double strand) [8-mer GGTTATGA]”, in data set [3], the binding signal (PBM E-score (-0.5 to 0.5)) amounted to 0.48.
In turn, “ATTGTTCC (double strand) [8-mer ATTGTTCC]” displayed a binding signal (PBM E-score (-0.5 to 0.5)) in data set [1] of 0.484.
On to “TTACATAA (double strand) [8-mer TTACATAA]”, for which the binding signal (PBM E-score (-0.5 to 0.5)) in data set [2] is 0.488.
“CGGATTAA (double strand) [8-mer CGGATTAA]” showed a binding signal (PBM E-score (-0.5 to 0.5)) in data set [1] of 0.482.
“AGGGGTTA (double strand) [8-mer AGGGGTTA]”: the binding signal (PBM E-score (-0.5 to 0.5)) in data set [3] is 0.479.
Turning to “CGTAACCC (double strand) [8-mer CGTAACCC]”, in data set [3], the binding signal (PBM E-score (-0.5 to 0.5)) was determined as 0.482.
Same read-out and setting: the figure for “AAGGGTTA (double strand) [8-mer AAGGGTTA]” is 0.489.
For the sequence “TTATATAA (double strand) [8-mer TTATATAA]”, the binding signal (PBM E-score (-0.5 to 0.5)) in data set [2] was 0.456.
Consider “AGGGTTAC (double strand) [8-mer AGGGTTAC]”, for which, in data set [3], the binding signal (PBM E-score (-0.5 to 0.5)) came out at 0.484.
“CGGAAAAA (double strand) [8-mer CGGAAAAA]” showed a binding signal (PBM E-score (-0.5 to 0.5)) in data set [1] of 0.495.
In data set [3], “AGAGGTTA (double strand) [8-mer AGAGGTTA]” showed a binding signal (PBM E-score (-0.5 to 0.5)) of 0.476.
Sequence “ATTATTCC (double strand) [8-mer ATTATTCC]” registered a binding signal (PBM E-score (-0.5 to 0.5)) in data set [1] of 0.479.
Still for that read-out and setting: the figure for “ATTTTTCC (double strand) [8-mer ATTTTTCC]” is 0.486.
As for “CAGGGTTA (double strand) [8-mer CAGGGTTA]”, the binding signal (PBM E-score (-0.5 to 0.5)) in data set [3] was found to be 0.477.
Sequence “ATTTTCCG (double strand) [8-mer ATTTTCCG]” came in with a binding signal (PBM E-score (-0.5 to 0.5)) in data set [1] of 0.472.
For “CATAACCC (double strand) [8-mer CATAACCC]”, the binding signal (PBM E-score (-0.5 to 0.5)) in data set [3] is 0.482.
On the same count and under the same terms, the figure for “AGGTTACC (double strand) [8-mer AGGTTACC]” is 0.476; for “AGGGTTAT (double strand) [8-mer AGGGTTAT]” it is 0.49.
In data set [1], “CGGATAAA (double strand) [8-mer CGGATAAA]” came in with a binding signal (PBM E-score (-0.5 to 0.5)) of 0.488.
For “AATGTTCC (double strand) [8-mer AATGTTCC]”, in data set [1], the binding signal (PBM E-score (-0.5 to 0.5)) was 0.471.
As for “ATTTATCC (double strand) [8-mer ATTTATCC]”, in data set [1], the binding signal (PBM E-score (-0.5 to 0.5)) was found to be 0.485.
In turn, “GGAAAAAA (double strand) [8-mer GGAAAAAA]” had a binding signal (PBM E-score (-0.5 to 0.5)) in data set [1] of 0.472.
On the same count and under the same terms, the figure for “ATTAATCC (double strand) [8-mer ATTAATCC]” is 0.486; for “AATTATCC (double strand) [8-mer AATTATCC]” it is 0.471.
In data set [3], “ATAACCTC (double strand) [8-mer ATAACCTC]” showed a binding signal (PBM E-score (-0.5 to 0.5)) of 0.487.
With “CGGATCAA (double strand) [8-mer CGGATCAA]”, the binding signal (PBM E-score (-0.5 to 0.5)) in data set [1] was found to be 0.472.
The sequence “AAAGGTTA (double strand) [8-mer AAAGGTTA]” displayed a binding signal (PBM E-score (-0.5 to 0.5)) in data set [3] of 0.479.
